# Assay results published in US20190169692.
# Molecular target: YB-1 protein, P67809
# Sequence (P67809 whole entry, looked up): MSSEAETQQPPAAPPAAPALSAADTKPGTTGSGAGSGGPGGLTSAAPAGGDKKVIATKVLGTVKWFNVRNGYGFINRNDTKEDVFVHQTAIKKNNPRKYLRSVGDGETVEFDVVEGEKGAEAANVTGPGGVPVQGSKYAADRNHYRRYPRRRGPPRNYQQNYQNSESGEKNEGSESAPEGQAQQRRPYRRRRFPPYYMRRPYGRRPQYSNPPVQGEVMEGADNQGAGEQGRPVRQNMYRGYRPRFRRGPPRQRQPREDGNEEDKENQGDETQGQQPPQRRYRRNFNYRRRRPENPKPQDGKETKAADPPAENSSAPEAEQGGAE
protein,measurement,value
serine threonine kinase 32C (STK32C) (protein) MRSGAERRGSSAAASPGSPPPGRARPAGSDAPSALPPPAAGQPRARDSGDVRSQPRPLFQWSKWKKRMGSSMSAATARRPVFDDKEDVNFDHFQILRAIGKGSFGKVCIVQKRDTEKMYAMKYMNKQQCIERDEVRNVFRELEILQEIEHVFLVNLWYSFQDEEDMFMVVDLLLGGDLRYHLQQNVQFSEDTVRLYICEMALALDYLRGQHIIHRDVKPDNILLDERGHAHLTDFNIATIIKDGERATALAGTKPYMAPEIFHSFVNGGTGYSFEVDWWSVGVMAYELLRGWRPYDIHSSNAVESLVQLFSTVSVQYVPTWSKEMVALLRKLLTVNPEHRLSSLQDVQAAPALAGVLWDHLSEKRVEPGFVPNKGRLHCDPTFELEEMILESRPLHKKKKRLAKNKSRDNSRDSSQSENDYLQDCLDAIQQDFVIFNREKLKRSQDLPREPLPAPESRDAAEPVEDEAERSALPMCGPICPSAGSG,"in vitro kinase assay with P32-labeled ATP (YB-1 with serine 165 / serine 167 mutated to alanine as substrate, STK32C as enzyme source)",it was confirmed that the serine 167 of the YB-1 substrate protein was phosphorylated by SKT32C
